IntAct's records for PubMed 10677492

B1: Dolichyl-diphosphooligosaccharide--protein glycosyltransferase subunit OST4 (Saccharomyces cerevisiae), Q99380 (parent)
chain: MISDEQLNSLAITFGIVMMTLIVIYHAVDSTMSPKN
partner: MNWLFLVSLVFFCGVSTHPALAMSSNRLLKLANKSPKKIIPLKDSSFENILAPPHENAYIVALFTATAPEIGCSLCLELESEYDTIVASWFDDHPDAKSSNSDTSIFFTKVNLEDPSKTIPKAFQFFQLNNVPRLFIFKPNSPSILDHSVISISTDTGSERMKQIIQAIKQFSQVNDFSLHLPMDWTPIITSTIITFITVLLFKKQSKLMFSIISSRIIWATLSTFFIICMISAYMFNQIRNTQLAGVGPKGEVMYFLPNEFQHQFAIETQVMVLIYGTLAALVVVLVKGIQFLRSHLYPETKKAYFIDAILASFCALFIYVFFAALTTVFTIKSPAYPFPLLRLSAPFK
B2: Dolichyl-diphosphooligosaccharide--protein glycosyltransferase subunit OST4 (Saccharomyces cerevisiae), Q99380 (parent)
chain: B1 chain
partner: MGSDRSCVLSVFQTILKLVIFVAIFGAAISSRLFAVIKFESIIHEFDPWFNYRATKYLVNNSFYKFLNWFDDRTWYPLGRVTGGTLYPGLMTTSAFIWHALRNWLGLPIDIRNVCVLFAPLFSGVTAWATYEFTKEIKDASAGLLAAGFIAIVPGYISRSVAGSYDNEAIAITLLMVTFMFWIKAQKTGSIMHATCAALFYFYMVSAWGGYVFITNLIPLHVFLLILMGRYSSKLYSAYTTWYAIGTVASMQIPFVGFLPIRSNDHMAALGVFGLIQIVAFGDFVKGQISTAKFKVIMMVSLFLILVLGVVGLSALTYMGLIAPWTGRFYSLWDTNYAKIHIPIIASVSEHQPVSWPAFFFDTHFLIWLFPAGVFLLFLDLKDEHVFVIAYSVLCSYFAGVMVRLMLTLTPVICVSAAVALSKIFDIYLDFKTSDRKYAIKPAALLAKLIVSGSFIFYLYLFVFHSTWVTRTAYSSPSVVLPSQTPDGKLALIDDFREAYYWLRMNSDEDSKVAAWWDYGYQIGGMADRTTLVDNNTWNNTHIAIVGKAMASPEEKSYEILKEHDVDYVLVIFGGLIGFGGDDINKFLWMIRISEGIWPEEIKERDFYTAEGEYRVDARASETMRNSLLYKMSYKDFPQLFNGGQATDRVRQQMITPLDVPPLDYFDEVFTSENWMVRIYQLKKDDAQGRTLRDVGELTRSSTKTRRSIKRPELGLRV

Variants of: B1
Conditions: with ost3_yeast OST3, P48439

Effect of a mutation on the interaction, disrupting interaction:
MISDEQLNSLAITFGIVMKTLIVIYHAVDSTMSPKN
MISDEQLNSLAITFGIVMMKLIVIYHAVDSTMSPKN
MISDEQLNSLAITFGIVMMTLIVKYHAVDSTMSPKN
MISDEQLNSLAITFGIVMMTLIKIYHAVDSTMSPKN
MISDEQLNSLAITFGIVMMTKIVIYHAVDSTMSPKN
MISDEQLNSLAITFGIVKMTLIVIYHAVDSTMSPKN

Variants of: B2
Conditions: with stt3_yeast STT3, P39007

Effect of a mutation on the interaction, disrupting interaction:
MISDEQLNSLAITFGIVMMTLIVKYHAVDSTMSPKN
MISDEQLNSLAITFGIVKMTLIVIYHAVDSTMSPKN
MISDEQLNSLAITFGIVMMTKIVIYHAVDSTMSPKN
